Measured values from the domain aggregation screens of Martell et al. (2025).

Assay: soluble fraction after stress (log2 fold change); higher = more stays soluble; pooled small domains, quantitative proteomics
Conditions: stress: 50 degC
In short: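 Quantitative proteomics served as the high-throughput read-out for pooled custom libraries of small protein domains. Each was stressed at 50°C. Aggregation propensity is expressed as the base-two log fold change in soluble protein after stress. A higher value means a larger share of the protein remains in solution.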

Sequence	soluble fraction (log2)
HMAGAITEREVEVLELLSRGLGNKEIAKELFVSEATVKSHLSHIYTKLAVDTRAGAVAAAIERRIIRAWR	-1.92
HMAGASQAVKAQLRLREMILAGELPGGARIAELTLVEKLGVSRTPIRAALMRLEQEGLLHRLPGGGYAVRT	-0.52
HMAGDDEIEKIAQDILAAWPDKVAAYQAGNKGLMGLFMGELMKKSQGKANPKVASGIIQKLLD	0.0445
HMAGEDPANLELMRLMDEEYMEHPTKGVLGMVDFLRALGILTGPKRVRRLLRKMGIMAIYPK	-0.0379
HMAGGVFELTGKVTADAKAGDLVYVKAATGAGTKPVVTTVKTGADVIIGWLKEPVSSASVDQKMQVVLA	0.147
HMAGITLHAEEGRVRIRSQSEGLVKVLDAMGREQASWPLRSKGWWFFLTEGWAPGTYFVKTESGETQRFLV	0.0535
HMAGNNTATKEIAELLIAKGADVNAMNLSPPGREIGGMTPLDMAILGNRNEIADLLRKHGGRTQKELKAE	0.356
HMAGPGAEVVDRLIAVLTGERPATAADQVLLSILKGLGIGGVVLPSERTGLGWSGLYQRVKEITDMN	-1.29
HMAGPRRRLLDAAIDRAAERGLGDLSLRALAEELGTSHRMLSHHFGSKDGLWLAIVEEVERRQ	-0.952
HMAGSTAASKHALALLNTARHSIRDGNLTSAAAEIKQALATSQEQIVITEARSLMTAMEARATTRRATVLQ	-0.168
HMAGTAMRATTAVNVRSGAGTNYSRIGLLQAGEQIQALSSKNGWTQVSYKGRTGYVASAYLASL	-0.309
HMAGTGKVNTGVANVRSGPGTNYEISGKIYADTEVSILETSNGWYKIKFGNLTGWMSGTVLDIK	-0.138
HMAGTPAVVKWFNPTKGFGFVTPREAGSDALLHASVLAKQGKRWLQEGTVVEVVLEEGPKGLVVSEVLTIE	-0.457
HMAGWMPGGTNPAEPGRFAVLMDVDDSDAYKHMFLRWNGHAWEFERTRVLVKMEPSWWMRLPDDPEKP	-1.99
HMAHKRVDGTIVTPLTADTIVLRTGTHGEQPFEIRDTTRHKLESLQKGDMVILLIDTDNKVIDVAIPP	0.423
HMAHYYVRNGYYYYQRRIPLDLRKFYSGANIKASLKTKDPAIAALFVAKFDRQYDAEFAQRRLNPD	-0.482
HMAIELIDLIKNPETAPFSKLKYLKWMPEAEVTGFFNNLFQLNVTARETGDWSTVDKFLEDEGDRIAAQVA	-0.138
HMAIEMSTITKRVTSTGEIRYRALLQIRREDVNYTESRTFSKKSLAEAWLKKREVELEANPELLHQ	-1.32
HMAIGERIRFLRTLRRMTQKELGLAAGFPEKNASIRMAQYENGTRTPKAELTAVLAEILKVSPQALTV	-1.2
HMAIKNKNEQLEAIIKFADLRGEFKTADIEELLSIKSSRARLLISELVKIGKLESIGSNRNRRYHIK	-0.52
HMAIKTGAVTGHGVKVRKGPSTNEKAIHDVLYGSRLQILEEKNGFLKAKFEDGTTGWISKQFVTTTDKNLL	0.223
HMAIKWTPEIEDEVSNKLKEKWSPEQISAWLKKNKSIMISHQRIYQFIVEDKMSGGNLYRNLRQ	-0.695
HMAIPTTDSDKATDAQIKQIKLLGDIHPNLKLDAWLERNHVTWETLTREQAGNMMKAIKNKYGD	-0.00881
HMAISEAERARLQTKIKERNKMARWINTNLNPTSKIRNINPAETVRKLMTQDDADSLERSLDAFMEA	-0.0378
HMAIVNVEVPSLVGKTEQEARNLLTEAGLKVNVVNDEDESKNDGVVLRQSKDAGTEVQEGTTITITVNKVS	-0.218
HMAKDDFMSFVKAVWPEFIEGAHHRVIAQKFNDLATGKITRLIVNMPPRHTKSEFASYLLPAW	0.107
HMAKDEYGLTSNQRAFADEYIRNKGNATQAYLFAYPHIKKENTAAVNASRLLRNAKVSKYIADRTKEIL	0.287
HMAKIDSRKALIDQLTTTFTRAQLEELITKNELSTDARFFLSQWNAKGWIRKTAKNVYEKLR	-0.134

Sequence	soluble fraction (log2)
HMAKLTPDQQELRAIRIELQMSQPDFADAININVPRLSSYEYGRTAGVPTSIMEAARELKRSMSR	-0.811
HMAKRDEIEAELPRFVATITQELAASRDVLSMIEHYKQNSGPVFSAELDVLTADMRSGSYEAALTRFEARF	0.0338
HMAKRKYKSFKDVAEFAQKLGIKSSTEWWAYVRGHEIPSDIPKDPSTYYKKEWTTWGDFLGTGYVSSA	0.154
HMAKRTVPSVAEAIDNFRRQHRRMPSYAEMLPLLGVRSKSVVHFWINKLLENGLLEKDDKGYLTPGS	-0.00958
HMAKSPYDVLGLKEDAPFDEVKKRYRELVKKYHPDILMGRGESEEMIEKSTRKLQEINEAYETIKQRA	0.118
HMAKVDIPHEMVDQRIDEIVEEIKMNLESQNMSLDDYLKRMNQTEAQLRANYEATAAEQVRQGLV	0.314
HMALDSQEVGYNIEARGARPVVAQLGKAGQFSAVENSIRLGDDNWIALAPKLAGGGNAGFTAGIKSALS	0.0371
HMALIGSNLRHLRNERKLSQQELADLIRVGRTTIANIEANLANPGHKTLLEIVKVFDITIDELLHTDLTK	-0.886
HMALKPKITIEELIRILNESKDLSDSETAKILNKDYTTAKYGKEFTSINVQGARYALDIATNTS	-0.135
HMALLSNEDIMFNLEFNRDLAVASNDGVSRDEFLRNKYGISEEEYNMLRARYGDGLNAARIKEYVGQRD	0.104
HMALLSNTVDELHAGMRLDSYLFESGLYPSRSFAVKQIEAGKVFLNGDAVTKKTLVSNGDFIVYELEE	-0.778
HMALMLGGLIVYLNTTAPRDDIDLIELSKDTKAMAAFGNKLASPDYNGKQFALDWHELSRDEIMSKYFS	-0.987
HMALPDWLDPEAWAAWKRHRKAIRKPLTEDAVALSIRELAKLRDEGYGPTSVIENAILKGWQGLYPPK	-0.133
HMALPGESVYVSILQSGSNRDQGVGYLDDGTMVVVDGAIKDIGKSIEVVINKSHQTVAGKMLFAKKVA	-0.0558
HMALPQPDDDRQDTKKRILDMAEDLLLTRGFNAFSYQHISSELGMKNAAIHYHYPKKNDLGVAVIQRYRRR	0.151
HMALQDKYAELLTAANTMGVTNLAVAEKDGTLHVSGTAKSTADYDSLWALYDKIDPNMASGDLMMNI	0.0408
HMALQDKYKELTDAATAAGVTDLQVREQDNVLYIDGTAPSGAVKDQLWAIYDKIDPNFVSGDLVLNVNVD	0.0655
HMALTLDEARTQGRVGETFYGYLVALKTDAETEKLVNDINAERKASYQQLAKQNNVSVDDIAKLAGQKLV	0.0405
HMALWFDEWKKYQDTIASADLLPDKAERDALIAQAEDRFNYWMDIYPRSASLNHSFDDLYEEHRRKIE	-0.75
HMAMDYEGFKKSVYALTSIDLNAYKERQMKRRIDTLIAKNKYNGYEDYTAAIKKDKALFEEFVNYLTIN	-0.284
HMAMMTKQRLIQLIHIARNDLQMDEDTYRQMLQGLTGKASTKGMDTPQLNRVLESMKKKGFRIK	-0.447
HMAMNLQETVLMQLRDLILRGTFEPGQRLSEQPLAERLKASRTPVRSALVTLEQEGLIEASETGKYLVRQ	-0.421
HMAMTNEEREALISEIKQTVNNSIDLKKDISDTEIKEAITQAVFERSEKSYLSIAEKQDIITAVFNSMR	0.0202
HMANADVVLVDLDKEYTVDAAKFHSVVKHSPFNGFAVKGAPVLTIVRGTVVAENGEVVGQPGHSKMVRP	-0.0579
HMANEGWDIYKLDIRNHKQPNGEYYSEKEIQSTINNTFGKGSFNVDWKKYEKDKEYREKTNYYYFQAKYFV	-0.19
HMANHIAAIHVLKSKLQMSDSDYRVLITGLTQKASTKDMSDIERQRVRDHMQGLAERMGVVK	-0.18
HMANIAVTIPTGSSGDRIADILLQAGLIKDKQDFNQAVIAAGAEGKLRAGYFVIPSNATPAEIISILT	-0.695
